Measured values from publication PMC9001736.

Key:
[1] = target: ZZ domain of HERC2 (HERC2ZZ, aa 2702–2755 with additional tryptophan at the C-terminus) (human) (UniProt O95714); assay: other fluorescence titration; tryptophan fluorescence; 1 μM HERC2ZZ with increasing REEE peptide; 25 °C; 20 mM Tris (pH 6.8), 150 mM NaCl, 2 mM DTT; excitation 295 nm
[2] = target: ZZ domain of HERC2 (HERC2ZZ, aa 2702–2755 with additional tryptophan at the C-terminus) (human) (UniProt O95714); assay: other fluorescence titration; tryptophan fluorescence; 1 μM HERC2ZZ with 1 μM HERC2DOC present, increasing REEE peptide; 25 °C; 20 mM Tris (pH 6.8), 150 mM NaCl, 2 mM DTT

ZZ domain of HERC2 (HERC2ZZ, aa 2702–2755 with additional tryptophan at the C-terminus) (human), sequence (O95714 other isoform, or with tags, fused parts or gaps): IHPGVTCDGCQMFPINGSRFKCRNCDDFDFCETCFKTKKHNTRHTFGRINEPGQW

Kd [1]: 1200 nM
Kd [2]: 1000 nM
Substance: REEE peptide (mimetic of the Nt-R cargo degradation signal)
